Reference: patent publication US5591825A, “Interleukin 4 signal transducers” (Tularik, Inc., priority 1994, dated 1997)
Non-standard residues stand in square brackets, D forms with d. pY = N[C@@H](Cc1ccc(OP(=O)(O)O)cc1)C(=O)O

Target: T1, IL-4 Stat (Homo sapiens, UniProt P42226)
T1 construct: Samples of nuclear extract prepared from IL-4 induced Thp-1 cells were incubated with individual phosphopeptides; endogenous in cells; host or cells: Thp-1 cells, IL-4 induced, nuclear extract
T1 sequence (P42226 1-847): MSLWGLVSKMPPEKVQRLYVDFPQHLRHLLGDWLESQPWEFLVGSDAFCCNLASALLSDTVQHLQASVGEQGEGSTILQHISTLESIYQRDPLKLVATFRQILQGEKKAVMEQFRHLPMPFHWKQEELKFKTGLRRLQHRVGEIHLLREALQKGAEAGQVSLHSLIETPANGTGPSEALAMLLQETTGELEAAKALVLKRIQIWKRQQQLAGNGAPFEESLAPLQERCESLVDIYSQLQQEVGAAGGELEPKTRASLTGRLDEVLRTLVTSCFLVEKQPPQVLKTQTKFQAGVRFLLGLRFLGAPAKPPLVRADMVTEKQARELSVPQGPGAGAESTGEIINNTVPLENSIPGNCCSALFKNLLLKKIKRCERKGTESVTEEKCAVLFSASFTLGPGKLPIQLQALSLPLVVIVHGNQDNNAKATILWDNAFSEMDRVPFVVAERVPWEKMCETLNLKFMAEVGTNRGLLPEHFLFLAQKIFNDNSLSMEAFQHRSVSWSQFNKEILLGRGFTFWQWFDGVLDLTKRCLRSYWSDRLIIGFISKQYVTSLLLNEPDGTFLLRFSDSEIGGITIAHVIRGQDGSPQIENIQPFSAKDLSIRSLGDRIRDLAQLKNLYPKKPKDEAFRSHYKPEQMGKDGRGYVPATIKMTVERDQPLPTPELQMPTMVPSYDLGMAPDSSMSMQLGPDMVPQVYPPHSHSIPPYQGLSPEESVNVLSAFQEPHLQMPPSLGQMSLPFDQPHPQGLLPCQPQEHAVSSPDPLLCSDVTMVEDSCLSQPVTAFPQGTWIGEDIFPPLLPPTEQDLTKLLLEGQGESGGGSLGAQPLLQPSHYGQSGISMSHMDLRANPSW
Assay: Gel mobility shift assay of IL-4 Stat DNA binding in nuclear extract of IL-4 induced Thp-1 cells
Type: biochemical
Details: nuclear extract from IL-4 induced Thp-1 cells

Substance	inhibitory effect on DNA binding by activated IL-4 Stat
NH2-ASS GEE GYKP FQD LI(SEQ ID NO:11)-COOH (H-ASSGEEG[pY]KPFQDLI-OH; SMILES CC[C@H](C)[C@H](NC(=O)[C@H](CC(C)C)NC(=O)[C@H](CC(=O)O)NC(=O)[C@H](CCC(N)=O)NC(=O)[C@H](Cc1ccccc1)NC(=O)[C@@H]1CCCN1C(=O)[C@H](CCCCN)NC(=O)[C@H](Cc1ccc(OP(=O)(O)O)cc1)NC(=O)CNC(=O)[C@H](CCC(=O)O)NC(=O)[C@H](CCC(=O)O)NC(=O)CNC(=O)[C@H](CO)NC(=O)[C@H](CO)NC(=O)[C@H](C)N)C(=O)O)	inhibitory
NH2-GPP GEA GYKA FSS LL(SEQ ID NO:10)-COOH (H-GPPGEAG[pY]KAFSSLL-OH; SMILES CC(C)C[C@H](NC(=O)[C@H](CC(C)C)NC(=O)[C@H](CO)NC(=O)[C@H](CO)NC(=O)[C@H](Cc1ccccc1)NC(=O)[C@H](C)NC(=O)[C@H](CCCCN)NC(=O)[C@H](Cc1ccc(OP(=O)(O)O)cc1)NC(=O)CNC(=O)[C@H](C)NC(=O)[C@H](CCC(=O)O)NC(=O)CNC(=O)[C@@H]1CCCN1C(=O)[C@@H]1CCCN1C(=O)CN)C(=O)O)	inhibitory
